Experimental data as given in patent US20240052047A1 (Pfizer, published 2024).

What was measured:
[1] = target: T1, human IL27 receptor (IL27RA/gp130 heterodimer) on human cells (human, UniProt Q6UWB1 33-636; P40189 23-918); assay: cell-based or functional assay
[2] = target: T1, human IL27 receptor (IL27RA/gp130 …); assay: cell-based or functional assay; remark: listed apart in the source
Human gp130 = target: T2, Human gp130 (human, UniProt P40189 23-619); assay: SPR Biacore 8K+, 37 C; mAb-4894 captured by anti-Fab, antigen as analyte; 1:1 Langmuir fit
T2 construct: Soluble analyte in SPR and antigen in ELISA/screens; also called huGP130
T2 sequence: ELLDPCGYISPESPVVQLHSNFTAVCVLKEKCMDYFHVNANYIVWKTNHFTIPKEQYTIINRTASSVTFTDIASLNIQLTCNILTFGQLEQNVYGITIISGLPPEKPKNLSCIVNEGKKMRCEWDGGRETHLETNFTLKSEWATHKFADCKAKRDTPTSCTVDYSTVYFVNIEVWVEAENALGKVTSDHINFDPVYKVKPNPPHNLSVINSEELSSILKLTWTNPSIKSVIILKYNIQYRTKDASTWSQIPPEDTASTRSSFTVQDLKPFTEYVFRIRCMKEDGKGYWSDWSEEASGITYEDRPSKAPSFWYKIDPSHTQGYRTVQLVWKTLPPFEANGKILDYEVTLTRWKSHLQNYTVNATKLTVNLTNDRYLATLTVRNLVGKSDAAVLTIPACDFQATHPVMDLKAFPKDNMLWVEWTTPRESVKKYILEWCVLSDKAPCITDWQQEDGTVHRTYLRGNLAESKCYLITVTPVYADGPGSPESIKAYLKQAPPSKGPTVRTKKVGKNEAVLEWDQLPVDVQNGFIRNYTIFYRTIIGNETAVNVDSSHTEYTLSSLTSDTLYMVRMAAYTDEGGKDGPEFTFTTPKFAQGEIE
Experimental: The crossreactivity of mAb-4894 to human and cynomolgus monkey antigens, gp130 (human—SEQ ID NO: 45, cynomolgus—SEQ ID No: 46) and IL27RA (human—SEQ ID NO: 41, cynomolgus—SEQ ID No: 42), was measured by surface plasmon resonance by anti-FAB capture of mAb-4894 (containing arms of anti-IL27RA-4880 EE and anti-gp130-4875 RR) on a biacore chip. Human or cynomolgus monkey IL27RA or gp130 was flowed over the chip and on and off rates were determined, and the affinity constants calculated.
Flow cell 1 for each channel was used as a reference flow cell. After antibody capture, three-fold dilution series of cytokines with concentrations ranging from 405 nM to 15 nM for huGP130 and cyGP130 and 45 nM to 1.67 nM for huIL27R and cyIL27R or HBS-EP+ buffer were injected over the sensor surface for 60 seconds at 50 μl/minute. The dissociation was monitored for 600 seconds and the surface was regenerated with 2 injections of 10 mM Glycine pH 1.7 at 30 μl/minute. The data was double referenced (Myszka, D., J. Mol. Recognit 1999; 279-284). Binding affinities and rate constants were determined for human and cyno GP130 and IL27R by fitting the resulting sensorgram data to a 1:1 Langmuir model in BIAcore Insight Evaluation software version 3.0.12.15655 (Cytiva).

[3] = target: T3, cynomolgus IL27 receptor (IL27RA/gp130 heterodimer) on cynomolgus T cells (cynomolgus monkey); assay: cell-based or functional assay
T3 chain 1: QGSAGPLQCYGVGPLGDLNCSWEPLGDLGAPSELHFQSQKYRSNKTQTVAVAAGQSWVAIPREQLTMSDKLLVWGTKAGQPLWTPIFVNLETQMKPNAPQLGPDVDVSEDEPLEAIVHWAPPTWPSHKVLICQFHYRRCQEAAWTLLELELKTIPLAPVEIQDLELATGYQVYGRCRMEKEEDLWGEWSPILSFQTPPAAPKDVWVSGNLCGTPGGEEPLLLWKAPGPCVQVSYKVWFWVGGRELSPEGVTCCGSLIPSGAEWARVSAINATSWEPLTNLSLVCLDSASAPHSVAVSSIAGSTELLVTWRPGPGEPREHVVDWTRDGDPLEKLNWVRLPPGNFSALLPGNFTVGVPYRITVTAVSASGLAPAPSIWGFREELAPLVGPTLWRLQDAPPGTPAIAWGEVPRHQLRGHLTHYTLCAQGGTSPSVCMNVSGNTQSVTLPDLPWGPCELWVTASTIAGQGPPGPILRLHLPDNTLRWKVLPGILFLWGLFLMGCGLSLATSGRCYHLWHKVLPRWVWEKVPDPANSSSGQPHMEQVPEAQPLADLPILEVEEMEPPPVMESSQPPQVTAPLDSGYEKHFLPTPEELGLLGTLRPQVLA
T3 chain 2: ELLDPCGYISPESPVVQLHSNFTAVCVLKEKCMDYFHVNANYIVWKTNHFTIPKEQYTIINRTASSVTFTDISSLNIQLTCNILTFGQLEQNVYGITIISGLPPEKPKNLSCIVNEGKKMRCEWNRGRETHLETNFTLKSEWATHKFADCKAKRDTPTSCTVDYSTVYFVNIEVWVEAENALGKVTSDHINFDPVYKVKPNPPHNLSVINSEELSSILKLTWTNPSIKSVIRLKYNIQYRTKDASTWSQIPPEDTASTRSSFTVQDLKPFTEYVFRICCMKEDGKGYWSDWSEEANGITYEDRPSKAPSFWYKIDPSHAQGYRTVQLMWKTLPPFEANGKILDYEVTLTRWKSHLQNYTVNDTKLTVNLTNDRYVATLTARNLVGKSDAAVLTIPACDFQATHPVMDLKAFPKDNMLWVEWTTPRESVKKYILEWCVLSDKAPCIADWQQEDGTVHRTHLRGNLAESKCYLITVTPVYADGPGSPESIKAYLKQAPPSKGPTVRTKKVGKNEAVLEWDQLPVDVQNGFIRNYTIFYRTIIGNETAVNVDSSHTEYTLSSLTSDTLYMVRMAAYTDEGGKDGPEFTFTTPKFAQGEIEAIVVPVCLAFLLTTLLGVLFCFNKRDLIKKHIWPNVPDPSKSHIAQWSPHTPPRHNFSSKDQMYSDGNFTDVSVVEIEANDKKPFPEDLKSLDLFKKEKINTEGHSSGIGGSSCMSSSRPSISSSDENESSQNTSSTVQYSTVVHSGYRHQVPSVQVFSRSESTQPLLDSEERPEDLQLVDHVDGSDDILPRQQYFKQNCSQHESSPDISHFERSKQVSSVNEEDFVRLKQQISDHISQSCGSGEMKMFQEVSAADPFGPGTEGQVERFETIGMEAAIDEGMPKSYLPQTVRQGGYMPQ

B1: mAb-4894 anti-IL27RA/gp130 bispecific antibody (bispecific antibody, human IgG1)
heavy 1: EVQLVESGGGLVQPGGSLRLSCAASGFTFEYFGLQWVRQAPGKGLEWIGYTSSGGNYEYYEETLKGRFTISRDNAKNSLYLQMNSLRAEDTAVYYCARTKTGDYWGQGTLVTVSSASTKGPSVFPLAPSSKSTSGGTAALGCLVKDYFPEPVTVSWNSGALTSGVHTFPAVLQSSGLYSLSSVVTVPSSSLGTQTYICNVNHKPSNTKVDKKVEPKSCEKTHTCPPCPAPEAAGAPSVFLFPPKPKDTLMISRTPEVTCVVVDVSHEDPEVKFNWYVDGVEVHNAKTKPREEQYNSTYRVVSVLTVLHQDWLNGKEYKCKVSNKALPAPIEKTISKAKGQPREPQVYTLPPSREEMTKNQVSLTCEVKGFYPSDIAVEWESNGQPENNYKTTPPVLDSDGSFFLYSKLTVDKSRWQQGNVFSCSVMHEALHNHYTQKSLSLSPGK
light 1: DIQMTQSPSSLSASVGDRVTITCRASQDIGNSLTWYQQKPGKAPKRVIFGATGLAAGVPSRFSGSGSGTDFTLTISSLQPEDFATYYCLQSKQYPYTFGQGTKLEIKRTVAAPSVFIFPPSDEQLKSGTASVVCLLNNFYPREAKVQWKVDNALQSGNSQESVTEQDSKDSTYSLSSTLTLSKADYEKHKVYACEVTHQGLSSPVTKSFNRGEC
heavy 2: QVQLVQSGAEVKKPGSSVKVSCKVSGGSISSYYWSWVRQAPGQGLEWIGRIYITGNTNYNPSLKDRVTMTVDTSTSTHYMELSSLRSEDTAVYYCAREGPKLGIFDYWGQGTLVTVSSASTKGPSVFPLAPSSKSTSGGTAALGCLVKDYFPEPVTVSWNSGALTSGVHTFPAVLQSSGLYSLSSVVTVPSSSLGTQTYICNVNHKPSNTKVDKKVEPKSCRKTHTCPPCPAPEAAGAPSVFLFPPKPKDTLMISRTPEVTCVVVDVSHEDPEVKFNWYVDGVEVHNAKTKPREEQYNSTYRVVSVLTVLHQDWLNGKEYKCKVSNKALPAPIEKTISKAKGQPREPQVYTLPPSREEMTKNQVSLTCLVKGFYPSDIAVEWESNGQPENNYKTTPPVLDSDGSFFLYSRLTVDKSRWQQGNVFSCSVMHEALHNHYTQKSLSLSPGK
light 2: DIQMTQSPSSLSASVGDRVTITCRASQSVSSSYLAWYQQKPGKAPKLLIYGTESRATGVPSRFSGSGSGTDFTLTISSLQPEDFATYYCQQYGGYPTFGGGTKVEIKRTVAAPSVFIFPPSDEQLKSGTASVVCLLNNFYPREAKVQWKVDNALQSGNSQESVTEQDSKDSTYSLSSTLTLSKADYEKHKVYACEVTHQGLSSPVTKSFNRGEC
notes: Human IgG1 EE/RR heterodimer with L234A, L235A, G237A (EU); also called GBT-IL27R-4894; GBT-IL-27R-4894
IDO1 in CD14+ monocytes EC50 [1]: 0.008 nM | PD-L1 in CD14+ monocytes EC50 (human whole blood) [1]: 0.002 nM | pSTAT1 in CD3+ T cells EC50 (human whole blood) [1]: 83 pM | IDO1 mRNA expression in primary cultured human colonocytes, average EC50 [2]: 20 nM | pSTAT1 in CD3+ T cells from human whole blood, average EC50 [2]: 0.43 nM | pSTAT3 in CD3+ T cells from human whole blood, average EC50 [2]: 0.23 nM | Kd (Human gp130): 170 nM | koff (Human gp130): 0.0566 s⁻¹ | kon (Human gp130): 337000 M⁻¹ s⁻¹ | T Cell pSTAT1 EC50 (cynomolgus whole blood, CD3+ T cells, flow cytometry) [3]: 1.74 nM | T Cell pSTAT3 EC50 (cynomolgus whole blood, CD3+ T cells, flow cytometry) [3]: 1.17 nM
